According to the supplement of paper PMC10065799, “High-throughput profiling of sequence recognition by tyrosine kinases and SH2 domains using bacterial peptide display” (eLife, 2023):

What was measured:
Fer (mouse) = assay: phosphorylation enrichment, bacterial display (enrichment ratio); higher = better substrate or ligand; peptides without Tyr show the background
c-Src = assay: as above
EPHB1 = EPHB1 (UniProt P54762); assay: as above
Fyn = Fyn (UniProt P06241); assay: as above
MERTK = MERTK (UniProt Q12866); assay: as above
Fes = Fes (UniProt P07332); assay: as above
Hck = Hck (UniProt P08631); assay: as above
FGFR1 = FGFR1 (UniProt P11362); assay: as above
FGFR3 = FGFR3 (UniProt P22607); assay: as above
EPHB2 = EPHB2 (UniProt P29323); assay: as above
Jak2 = Jak2 (UniProt O60674); assay: as above
AncSZ = assay: as above
c-Abl (mouse) = assay: as above
SHP2-C SH2 = assay: SH2 binding enrichment of the phosphorylated peptide, bacterial display (enrichment ratio); higher = better substrate or ligand; peptides without Tyr show the background
c-Src SH2 = assay: as above
Grb2 SH2 = Grb2 SH2 (UniProt P62993); assay: as above
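Throughout, for SH2 binding enrichment of the phosphorylated peptide, bacterial display: peptide library displayed on the E. coli surface as eCPX fusions, selected cells deep-sequenced, score is each peptide's frequency after selection divided by its frequency in the input.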
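Throughout, for phosphorylation enrichment, bacterial display: 11-residue human phosphosite peptides and single-mutation variants displayed on the E. coli surface, counted by deep sequencing, each peptide's frequency after selection divided by its frequency in the unselected input library; frequency after pTyr selection over input frequency; kinase dosed for 20-30% of maximal phosphorylation in three min.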

Sequence of EPHB2 (P29323 whole entry, looked up): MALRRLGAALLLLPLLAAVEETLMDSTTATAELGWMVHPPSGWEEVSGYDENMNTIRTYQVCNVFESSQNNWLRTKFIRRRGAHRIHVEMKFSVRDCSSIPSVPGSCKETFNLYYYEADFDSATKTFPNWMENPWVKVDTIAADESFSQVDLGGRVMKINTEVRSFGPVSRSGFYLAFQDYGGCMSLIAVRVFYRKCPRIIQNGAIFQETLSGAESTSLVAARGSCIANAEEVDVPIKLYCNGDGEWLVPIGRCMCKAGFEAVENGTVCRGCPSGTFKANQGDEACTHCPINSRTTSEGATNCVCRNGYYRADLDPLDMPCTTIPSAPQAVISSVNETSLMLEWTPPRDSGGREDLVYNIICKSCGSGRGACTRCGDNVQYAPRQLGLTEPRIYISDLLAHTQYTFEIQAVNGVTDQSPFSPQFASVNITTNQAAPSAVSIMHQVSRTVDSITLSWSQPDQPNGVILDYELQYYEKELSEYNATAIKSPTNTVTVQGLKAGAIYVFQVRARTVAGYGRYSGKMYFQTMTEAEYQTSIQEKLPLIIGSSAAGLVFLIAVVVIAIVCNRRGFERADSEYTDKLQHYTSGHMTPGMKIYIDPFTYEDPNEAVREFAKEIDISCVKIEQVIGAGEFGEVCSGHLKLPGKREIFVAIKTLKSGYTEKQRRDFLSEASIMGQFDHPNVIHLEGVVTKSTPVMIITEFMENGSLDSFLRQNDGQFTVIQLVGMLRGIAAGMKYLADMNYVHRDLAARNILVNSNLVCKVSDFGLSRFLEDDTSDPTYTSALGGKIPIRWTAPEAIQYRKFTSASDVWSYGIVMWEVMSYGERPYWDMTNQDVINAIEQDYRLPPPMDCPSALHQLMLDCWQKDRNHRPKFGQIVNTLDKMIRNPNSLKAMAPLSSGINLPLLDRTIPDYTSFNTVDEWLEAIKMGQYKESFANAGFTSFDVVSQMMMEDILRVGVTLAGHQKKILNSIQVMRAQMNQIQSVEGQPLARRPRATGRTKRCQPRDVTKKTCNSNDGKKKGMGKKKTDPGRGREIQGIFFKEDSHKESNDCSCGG
Sequence of Jak2 (O60674 whole entry, looked up): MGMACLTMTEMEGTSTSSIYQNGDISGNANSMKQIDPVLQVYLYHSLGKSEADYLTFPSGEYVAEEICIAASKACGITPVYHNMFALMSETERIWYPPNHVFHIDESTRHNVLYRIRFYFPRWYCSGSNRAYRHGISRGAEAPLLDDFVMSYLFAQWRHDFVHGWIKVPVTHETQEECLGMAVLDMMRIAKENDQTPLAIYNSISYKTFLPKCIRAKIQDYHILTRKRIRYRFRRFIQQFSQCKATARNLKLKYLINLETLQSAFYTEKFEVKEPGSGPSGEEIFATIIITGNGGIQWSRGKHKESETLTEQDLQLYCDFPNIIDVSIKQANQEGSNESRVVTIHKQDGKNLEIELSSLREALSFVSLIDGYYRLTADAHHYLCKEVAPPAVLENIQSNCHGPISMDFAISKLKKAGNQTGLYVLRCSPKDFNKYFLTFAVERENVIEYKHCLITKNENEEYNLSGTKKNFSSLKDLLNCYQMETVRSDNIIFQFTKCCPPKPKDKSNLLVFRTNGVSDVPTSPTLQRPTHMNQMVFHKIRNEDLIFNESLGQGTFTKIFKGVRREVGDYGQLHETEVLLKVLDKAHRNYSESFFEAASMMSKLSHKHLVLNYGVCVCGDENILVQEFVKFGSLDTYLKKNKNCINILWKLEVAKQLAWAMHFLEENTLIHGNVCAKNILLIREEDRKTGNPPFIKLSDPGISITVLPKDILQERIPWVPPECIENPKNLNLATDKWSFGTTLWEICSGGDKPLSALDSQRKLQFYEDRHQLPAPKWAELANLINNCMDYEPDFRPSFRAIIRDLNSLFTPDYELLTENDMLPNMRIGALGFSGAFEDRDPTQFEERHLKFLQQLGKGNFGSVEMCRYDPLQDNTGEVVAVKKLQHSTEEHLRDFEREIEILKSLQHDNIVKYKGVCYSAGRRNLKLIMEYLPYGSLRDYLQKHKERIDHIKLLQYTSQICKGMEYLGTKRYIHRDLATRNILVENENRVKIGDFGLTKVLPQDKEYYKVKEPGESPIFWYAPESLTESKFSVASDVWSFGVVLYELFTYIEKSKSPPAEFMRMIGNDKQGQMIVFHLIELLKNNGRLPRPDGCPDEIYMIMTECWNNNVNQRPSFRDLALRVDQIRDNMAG
Sequence of Fes (P07332 whole entry, looked up): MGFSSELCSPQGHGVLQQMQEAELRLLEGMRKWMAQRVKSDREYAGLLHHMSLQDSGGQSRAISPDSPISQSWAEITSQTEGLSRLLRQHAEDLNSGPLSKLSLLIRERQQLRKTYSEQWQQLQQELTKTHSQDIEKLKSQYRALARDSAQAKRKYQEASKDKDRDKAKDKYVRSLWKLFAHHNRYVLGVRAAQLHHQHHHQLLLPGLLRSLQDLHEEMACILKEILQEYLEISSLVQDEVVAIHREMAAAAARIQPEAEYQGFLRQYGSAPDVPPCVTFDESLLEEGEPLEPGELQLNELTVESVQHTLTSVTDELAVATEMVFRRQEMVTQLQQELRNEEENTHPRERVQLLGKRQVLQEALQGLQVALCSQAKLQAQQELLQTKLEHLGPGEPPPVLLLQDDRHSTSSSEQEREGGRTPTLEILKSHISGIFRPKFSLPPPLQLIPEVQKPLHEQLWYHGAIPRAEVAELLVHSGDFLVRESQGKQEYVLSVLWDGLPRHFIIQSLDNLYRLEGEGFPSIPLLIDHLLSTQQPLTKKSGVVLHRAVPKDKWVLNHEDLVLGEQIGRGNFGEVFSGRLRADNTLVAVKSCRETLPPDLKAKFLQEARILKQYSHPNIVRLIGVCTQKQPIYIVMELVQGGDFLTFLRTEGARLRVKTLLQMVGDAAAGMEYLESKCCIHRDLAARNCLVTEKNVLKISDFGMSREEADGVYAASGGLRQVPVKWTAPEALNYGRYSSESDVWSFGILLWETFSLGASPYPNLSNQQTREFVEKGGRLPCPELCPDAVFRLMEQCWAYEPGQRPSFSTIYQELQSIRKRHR
Sequence of EPHB1 (P54762 whole entry, looked up): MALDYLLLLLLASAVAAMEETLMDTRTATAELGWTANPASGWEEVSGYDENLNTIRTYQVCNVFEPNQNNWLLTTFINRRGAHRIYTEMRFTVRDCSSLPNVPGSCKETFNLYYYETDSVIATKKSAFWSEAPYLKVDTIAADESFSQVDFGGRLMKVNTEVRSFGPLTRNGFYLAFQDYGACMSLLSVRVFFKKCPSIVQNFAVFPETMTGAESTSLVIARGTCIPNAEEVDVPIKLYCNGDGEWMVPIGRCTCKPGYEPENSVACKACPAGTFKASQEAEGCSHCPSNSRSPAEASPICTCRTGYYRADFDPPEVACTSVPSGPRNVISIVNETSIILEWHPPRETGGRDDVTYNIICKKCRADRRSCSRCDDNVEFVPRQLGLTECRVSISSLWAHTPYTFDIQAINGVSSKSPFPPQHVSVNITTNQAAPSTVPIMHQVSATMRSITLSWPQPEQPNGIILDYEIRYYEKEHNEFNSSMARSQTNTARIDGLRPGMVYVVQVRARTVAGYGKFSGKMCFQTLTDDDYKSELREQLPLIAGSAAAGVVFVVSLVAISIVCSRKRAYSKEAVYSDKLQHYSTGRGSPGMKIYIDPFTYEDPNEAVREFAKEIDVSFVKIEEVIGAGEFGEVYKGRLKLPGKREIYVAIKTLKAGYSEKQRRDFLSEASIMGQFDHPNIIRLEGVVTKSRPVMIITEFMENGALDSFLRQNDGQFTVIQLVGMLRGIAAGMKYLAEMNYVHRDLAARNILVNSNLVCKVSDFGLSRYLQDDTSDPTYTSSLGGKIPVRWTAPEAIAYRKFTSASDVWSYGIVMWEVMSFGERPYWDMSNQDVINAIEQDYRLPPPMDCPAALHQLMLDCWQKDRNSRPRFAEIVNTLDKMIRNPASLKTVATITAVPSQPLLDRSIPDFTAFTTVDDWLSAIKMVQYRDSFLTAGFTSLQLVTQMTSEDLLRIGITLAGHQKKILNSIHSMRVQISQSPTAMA
Sequence of FGFR3 (P22607 whole entry, looked up): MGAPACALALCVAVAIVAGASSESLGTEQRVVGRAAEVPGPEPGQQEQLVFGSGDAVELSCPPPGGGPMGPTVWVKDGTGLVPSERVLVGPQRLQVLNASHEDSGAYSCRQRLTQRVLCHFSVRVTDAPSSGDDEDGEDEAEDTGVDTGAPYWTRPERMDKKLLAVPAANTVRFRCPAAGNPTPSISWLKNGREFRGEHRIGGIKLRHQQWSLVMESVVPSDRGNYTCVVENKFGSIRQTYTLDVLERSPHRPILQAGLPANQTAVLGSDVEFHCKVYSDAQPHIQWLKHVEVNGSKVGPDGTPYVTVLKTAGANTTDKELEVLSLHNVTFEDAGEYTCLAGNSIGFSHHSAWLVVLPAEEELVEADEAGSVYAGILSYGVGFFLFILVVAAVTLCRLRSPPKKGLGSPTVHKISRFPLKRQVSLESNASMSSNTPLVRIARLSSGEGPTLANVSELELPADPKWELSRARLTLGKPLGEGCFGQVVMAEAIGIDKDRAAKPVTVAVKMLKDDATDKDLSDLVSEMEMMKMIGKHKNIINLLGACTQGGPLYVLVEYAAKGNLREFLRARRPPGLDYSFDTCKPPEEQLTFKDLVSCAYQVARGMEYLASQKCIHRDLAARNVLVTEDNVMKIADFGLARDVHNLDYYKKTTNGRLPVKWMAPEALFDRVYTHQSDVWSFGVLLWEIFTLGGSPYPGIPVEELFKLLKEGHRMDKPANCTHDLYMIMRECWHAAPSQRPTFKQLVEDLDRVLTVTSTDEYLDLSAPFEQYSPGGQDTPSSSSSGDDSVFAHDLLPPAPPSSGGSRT

Row | Sequence | SH2 binding enrichment (SHP2-C SH2) | SH2 binding enrichment (c-Src SH2) | SH2 binding enrichment (Grb2 SH2) | phosphorylation enrichment (Fer (mouse)) | phosphorylation enrichment (c-Src) | phosphorylation enrichment (EPHB1) | phosphorylation enrichment (Fyn) | phosphorylation enrichment (MERTK) | phosphorylation enrichment (Fes) | phosphorylation enrichment (Hck) | phosphorylation enrichment (FGFR1) | phosphorylation enrichment (FGFR3) | phosphorylation enrichment (EPHB2) | phosphorylation enrichment (Jak2) | phosphorylation enrichment (AncSZ) | phosphorylation enrichment (c-Abl (mouse))
1 | WVFNHYRWIIW [BRCA2_Y2624_YF] | 0.776 | 0.717 | 1.09 | 0.456 | 0.432 | 0.611 | 0.343 | 0.437 | 1.39 | 0.403 | 0.452 | 0.824 | 0.536 | 1.36 | 1.29 | 0.862
2 | DTDSSYCIPTA [GAB1_Y373] | 0.854 | 0.741 | 0.95 | 0.519 | 0.497 | 0.692 | 0.518 | 1.01 | 1.18 | 0.578 | 0.592 | 0.65 | 0.598 | 1.07 | 1.99 | 0.73
3 | TQNAVYSAANY [DDX5_Y535_G533A] | 0.956 | 0.708 | 0.88 | 2.8 | 6.96 | 2.46 | 8.89 | 5.57 | 0.924 | 11.1 | 0.586 | 0.619 | 3.99 | 0.527 | 0.643 | 4.56
4 | AEEKEYHAEEG [EGFR_Y869_G873E] | 0.746 | 0.552 | 0.994 | 0.494 | 0.451 | 0.649 | 0.633 | 0.445 | 1.15 | 0.573 | 0.605 | 0.747 | 0.815 | 1.01 | 1.29 | 0.84
5 | ELTTCYRKKCC [CCBE1_Y70] | 0.873 | 0.741 | 1.02 | 0.393 | 0.379 | 0.441 | 0.444 | 0.413 | 0.785 | 0.396 | 0.485 | 0.507 | 0.48 | 0.652 | 0.817 | 0.559
6 | RGRSTYYWPRP [GAGE12J_Y9] | 0.55 | 0.501 | 0.8 | 0.607 | 0.494 | 0.656 | 0.68 | 0.98 | 0.546 | 0.762 | 0.742 | 0.869 | 0.707 | 0.715 | 0.869 | 0.859
7 | LAVNPYGPPDP | 0.7 | 0.528 | 0.934 | 0.44 | 0.523 | 0.461 | 0.454 | 0.594 | 0.692 | 0.516 | 0.436 | 0.493 | 0.553 | 0.709 | 0.796 | 0.726
8 | ASNFNYFFHRE [KCNA1_Y413_V408A_YF] | 1.03 | 0.6 | 1.31 | 0.415 | 0.43 | 0.511 | 0.372 | 0.453 | 1.01 | 0.654 | 0.506 | 0.748 | 0.556 | 0.805 | 1.03 | 0.571
9 | SGGSSYGSGGC [KRT1_Y532_G537C] | 0.536 | 0.538 | 0.756 | 0.53 | 0.502 | 0.558 | 0.465 | 0.431 | 0.932 | 0.493 | 0.589 | 0.667 | 0.596 | 0.677 | 0.681 | 0.697
10 | GFSRHYEDGFP [CTNND1_Y217_YF] | 0.564 | 1.44 | 0.708 | 0.574 | 0.335 | 0.432 | 0.428 | 0.442 | 0.739 | 0.435 | 0.352 | 0.563 | 0.451 | 0.608 | 0.619 | 0.405
11 | GHLYAYDWISI [BEST1_Y227] | 1.31 | 1.76 | 1.56 | 15 | 2.38 | 6.51 | 2.24 | 9.38 | 3.56 | 2.99 | 8.88 | 6.48 | 5.04 | 0.923 | 1.98 | 0.848
12 | PPVVNYEEDAR [FER_Y402] | 1.01 | 0.806 | 0.745 | 0.585 | 0.534 | 0.957 | 0.896 | 0.856 | 1.86 | 0.64 | 0.569 | 0.968 | 0.892 | 1.4 | 1.26 | 0.824
13 | QLFGPYLRIHA [BSCL2_Y213_A212P_YF] | 1.54 | 1.17 | 1.33 | 0.427 | 0.785 | 1.13 | 0.588 | 0.485 | 1.56 | 0.515 | 0.733 | 1.03 | 0.548 | 1.35 | 1.25 | 0.628
14 | RRERLYGGGGG [FUS_Y526_P525L] | 0.404 | 0.402 | 0.657 | 0.499 | 0.878 | 0.677 | 0.535 | 0.561 | 1.14 | 0.365 | 0.546 | 0.545 | 0.398 | 0.528 | 0.701 | 0.39
15 | YSIDYYRVGGH [NTRK2_Y707_T704I] | 0.753 | 1.44 | 0.832 | 0.514 | 2.15 | 1.52 | 1.31 | 8.42 | 0.916 | 1.78 | 12.5 | 9.07 | 0.86 | 6.54 | 1.65 | 0.494
16 | GVMLLYYGRYN [ADGRD1_Y85_T82M] | 0.921 | 0.96 | 1.17 | 0.515 | 2.23 | 0.616 | 1.24 | 0.416 | 1.24 | 1.21 | 0.556 | 0.6 | 0.761 | 1.34 | 1.53 | 0.594
17 | EAEALYQTKFQ [KRT73_Y325] | 0.609 | 0.348 | 0.707 | 0.964 | 1.44 | 0.58 | 1.32 | 0.569 | 1.19 | 2.65 | 0.534 | 0.687 | 0.645 | 0.976 | 1.33 | 0.85
18 | PEADKYRLPYA [FGG_Y300_T303P] | 0.612 | 0.402 | 0.741 | 0.521 | 0.488 | 0.89 | 0.467 | 0.477 | 1 | 0.598 | 0.439 | 0.552 | 0.715 | 1.33 | 0.763 | 0.571
19 | ICGVSYDEYRY [CFTR_Y512_F508C] | 0.681 | 1.77 | 0.751 | 0.599 | 1.11 | 0.733 | 0.637 | 0.463 | 1.58 | 0.633 | 0.478 | 1.01 | 0.704 | 1.26 | 1.46 | 0.943
20 | RMDGTYACSFT [FLNB_Y704_YF] | 0.619 | 0.557 | 0.893 | 0.932 | 2.31 | 1.03 | 2.61 | 0.702 | 1.16 | 2.43 | 0.836 | 0.812 | 0.741 | 0.806 | 1.3 | 1.34

Continued, in another order:

Row | SH2 binding enrichment (SHP2-C SH2) | SH2 binding enrichment (c-Src SH2) | SH2 binding enrichment (Grb2 SH2) | Sequence | phosphorylation enrichment (Fer (mouse)) | phosphorylation enrichment (c-Src) | phosphorylation enrichment (EPHB1) | phosphorylation enrichment (Fyn) | phosphorylation enrichment (MERTK) | phosphorylation enrichment (Fes) | phosphorylation enrichment (Hck) | phosphorylation enrichment (FGFR1) | phosphorylation enrichment (FGFR3) | phosphorylation enrichment (EPHB2) | phosphorylation enrichment (Jak2) | phosphorylation enrichment (AncSZ) | phosphorylation enrichment (c-Abl (mouse))
21 | 0.479 | 0.518 | 0.707 | NNKKDYFDMFE [SLC26A3_Y526_K521N_YF] | 0.485 | 0.488 | 1.12 | 0.415 | 0.46 | 1.16 | 0.504 | 5.31 | 3.74 | 0.791 | 0.991 | 1.08 | 0.723
22 | 7.45 | 1.73 | 1.07 | KFDLMYAKLAF [TUBA1A_Y399_R402L] | 0.632 | 3.04 | 0.726 | 1.26 | 3.23 | 1.13 | 4.61 | 0.49 | 0.676 | 0.619 | 0.811 | 0.818 | 0.716
23 | 0.683 | 0.507 | 0.776 | QRRYLYYYSYL [PTEN_Y176_V175L] | 0.671 | 2.84 | 1.19 | 1.62 | 7.18 | 0.887 | 2.2 | 4.64 | 3.52 | 1.12 | 4.97 | 1.14 | 0.494
24 | 0.67 | 0.458 | 0.976 | LAIELYVVVCK [RHO_Y136_R135L] | 1.17 | 1.11 | 2.12 | 1.14 | 0.597 | 3.23 | 0.861 | 1.4 | 1.64 | 2.06 | 2.07 | 2.14 | 2.59
25 | 0.946 | 0.784 | 1.38 | QTWKTYVRHQQ [SFI1_Y164_Q167H] | 0.465 | 0.769 | 0.548 | 0.476 | 0.49 | 1.29 | 0.486 | 0.535 | 2.21 | 0.509 | 1.3 | 0.901 | 1.36
26 | 0.87 | 0.777 | 1.17 | LLVVLYKYRCY [PSEN1_Y154] | 0.699 | 0.609 | 0.318 | 0.532 | 0.746 | 1.79 | 0.708 | 0.686 | 0.615 | 0.642 | 0.974 | 1.11 | 1.57
27 | 0.449 | 1.24 | 0.65 | LRYDSYSSYCN [SLC20A2_Y433] | 0.577 | 1.27 | 2.74 | 0.837 | 1.38 | 1.12 | 0.949 | 0.619 | 0.849 | 5.07 | 0.865 | 1.32 | 0.824
28 | 1.13 | 0.466 | 0.766 | QKMADYSNKLH [PDPR_Y104_Y109H] | 0.571 | 0.706 | 0.569 | 0.382 | 0.429 | 0.835 | 0.586 | 0.527 | 0.708 | 0.864 | 0.974 | 0.843 | 0.714
29 | 0.52 | 0.457 | 0.737 | SVTCMYSPALN [TP53_Y126_T125M] | 0.667 | 0.804 | 0.738 | 0.501 | 0.472 | 1.47 | 0.594 | 0.481 | 0.749 | 0.632 | 1.36 | 1.39 | 0.97
30 | 0.607 | 0.481 | 0.807 | FRQNGYIPGSN [PCDHGA1_Y895_V894G_YF] | 0.377 | 0.435 | 0.396 | 0.403 | 0.393 | 0.548 | 0.392 | 0.416 | 0.437 | 0.359 | 0.544 | 0.5 | 0.499
31 | 0.963 | 5 | 0.924 | NQDRTYYESVR [SPEN_Y632] | 0.993 | 2 | 0.569 | 1.4 | 1.02 | 0.819 | 2.05 | 1.02 | 0.828 | 0.661 | 0.762 | 0.897 | 0.787
32 | 1.62 | 0.97 | 1.31 | AKLVQYFMEHH [PTPN11_Y80_E76K_YF] | 0.445 | 0.412 | 0.462 | 0.374 | 0.362 | 0.853 | 0.441 | 0.496 | 0.684 | 0.505 | 0.63 | 0.729 | 0.546
33 | 1.2 | 1.05 | 1.33 | RGVTHYILQTF [SLC39A4_Y359] | 0.582 | 0.48 | 0.394 | 0.499 | 0.553 | 1.27 | 0.711 | 0.664 | 0.905 | 0.703 | 1.24 | 1.09 | 0.944
